Experimental findings from a protein production outcome set (Wang et al. 2014) are described below.
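Further: failed if final PepcDB status was selected cloned or expressed and not failed if soluble or beyond.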

The data set in a line: label from the status in PepcDB records.
In the case of “MTISNGDVKSETCNNGSSEKKPFRIFVGYDPREDLAYQVCHHSITKRSSIPVEITPIIQSDLRKKGLYWRERGQLESTEFSFSRFLTPHLSDYQGWAMFVDCDFLYLADIKELTDLIDDKYAIMCVQHDYTPKETTKMDGAVQTVYPRKNWSSMVLYNCGHPKNKTLSPEIVNTQTGAFLHRFQWLEDEEIGSIPFVWNFLEGHNRVVEKDPTTQPKAVHYTRGGPWFDAWKDCEFADLWLNEMEEYNKENKKEADNAK”, the protein production entry is given as “failed”. Turning to “MTLIPTDLSASRLSDAVRDPNREIAASSRVIDLSVGIVVCIPCFRRPQHLRLTLESLASQRTPRSFAVVMVENDAARRESAPVAAEYLADGRLQGICLVEQRQGNCQAINAAFETAQALFPAATRFLMIDDDEIASPDWLELMVRTAEATGADVVGGPVLPDFDDDSQPWLSRHPAFRPAYDYSGAVPLIYGCGNCLITRAAFDRLGSPAFDLRFNFLGGGDCDFFVRCRDAGMTFHWTTEAVITETVPQSRTSLGWIAKRGLRIGAINYRVQHKAAQGAAARVRVFAQMLGRLPLSLLRAARLLATSKAVVAMHPVMVALGSLLAALGIEPKPYEASKIVS”, the protein production result was “failed”.

For the sequence “MNMKATALTATTVAIASLLPSMGETNVQTANAEQLSNVKTGYVKVDQVALHTKDNANSSSIDTIRFNTKVNILETTNGWYKVSVNNKVGYVQKDSILLKNKLQSNNQYIVNANALNVRSEPNLESSILDVLPNGKFVTIQEEQGEWYKISHNGKAGYVQKAFVSNGSQPLVKGITVQNNTKYTVATPKLNVRSNASTSSALLGSLQNGTQLQVVETVGTWYKIRFGTGYGYVAKHYVVQNQTQSQTQTAQPTSIPAVFKFPTQGRISSTFDMRWEQMHYGIDIAAPGNVSIQAAAAGKVVKSYYSASYGNVVFIAHQINGKLYTTVYAHMKDRTVQAGDQVQAGQLVGHMGNTGHSYGQHLHFELHNGEWNFEKTNAVNPLPYLVRLEHHHHHH”, the protein production entry is given as “failed”. “MKPIQLPLSVRLRDDATFANYYPGANAAALGYVERLCEAEAGWAESLIYLWGHDGVGRSHLLQAACLRFEQFEERTIYLPMADLVQYGPEIFDDLEQCELVCIDDLDVLVGKREWEEGLFHLFNRLRDTGRRLLLAASKSPRELQVKLPDLKSRLTMALIFQLHGLSDEDKLRALQLRASRRGLHLTDEVGRFILNRGSRSMNSLFDLLEQLDRASLQAQRKLTIPFLKETLGWLEHHHHHH”: the protein production entry is listed as “not failed”. As for “MPMTLDLQPGQRLARGVARHLRAHGFVSVEEFVPARGLRVDVMGLGPKGEIWVIECKSSRADFQADAKWQGYLEWCDRYFWAVDMEFPAELLPAESGLLIADAYDAEIVRMAPEQKLAPARRKVLIQKFATHAARRLQALRDPEGHGIFE”, the entry is “not failed”; as for “MNLLPKTREEFAQTDYWNEFFKKRGEKAFEWYGEYLELCDQIHKYIKPADRILMLGCGNSKLSMDMYDTGFRDITNIDISPIAVKKMLELNAKSRPEMKFLQMDATAMTFPDESFSVSLDKGTLDALFADDEPETRAVVENYFKEILRTMRNGGRYVGISLLQEHILNFLLDFLPKHNCMLRIVHCLGVEQANKEKNADDALTLPVFVVVATKFKSLPMPVLEFGFGNDKMQRFTTVSELNSAVSSVQKAALVCNGLARSNIAGHNEVIMDLHRPSEQTPRYTIHILDKPPARGLGKYAAFIVPQGREVEWIFSTPAGRKKLQDSANFQRLAVVTLHRDQVYSTLDEVKQELADSIKNLSPAGLTDQIPYLSLGSDVGKRETLICGFSKISGDFRIEEVEANGKTLRRLIFLSNQFVVQSEALVKTVKIKGKKDRKKIDFGYLACQHHLYMSVGVQLATTVQHPKRDVEKDVLVVGLGGGGLCSFLHAALPQARITAVEIDPIMLEVAEQYFELKQDKRFHVVIDDGLDFVERCRNEDIHFDAVLFDVDSKDLSLGMSCPPQSFLATKILQHIKEIIGPKGLFMLNLVCRDESLRTEALNNLHKVFPAVCSYKLEEDINEIIYCANDEKYKTVEQWKKNMGTAGRGLNSAVKETKLASEDALEVAEFLSELKI”, “failed”.

“STALIQLYSLCEHAFHRHLGSGSDSRQTIERYSSPKVRRLLQTLRCFKPEEVHTQADGLRRMRHQVDQADFNRLSHTLESKCRMVDQMDQPPTETRALVATLEQILHTTEDRQTNRSAARVTPTPTPAHAKPKPSSGANTAQPRTRRRVY”: the protein production result was “failed”. Consider “MKCKDDMSAVLTAEQALKLVGEMFVYHMPFNRALGMELERYEKEFAQLAFKNQPMMVGNWAQSILHGGVIASALDVAAGLVCVGSTLTRHETISEDELRQRLSRMGTIDLRVDYLRPGRGERFTATSSLLRAGNKVAVARVELHNEEQLYIASATYMVG”, for which the protein production entry is given as “failed”. The same measure for “MEKVTFVRIADLENHNNDGGFWTVIDGKVYDIKDFQTQSLTENSILAQFAGEDPVVALEAALQFEDTRESMHAFCVGQYLEPDQEGVTIP”: “not failed”; for “MDITMKIAPLLLALGAAGLACCAHAADPKPFTVQQLVKLNKLHSAVVSHDGTKLVYGLKTVNDKGEASSDLYLLDLTQADAKPLQLTSAAGTEHDISFANDDKSIYFLASRSGSSQLFQLPLTGGEAQQVSDLPLDIDGYKLSNDGKQIVLSMRVFPECKDLACSKDKFKAEEERKSTGREYKQLMVRHWDTWEDHARNHLFVGTLNGEKLTKVVDITQGLDTETPPKPFSGMEEVTFTPDGQYVVYSAKAPSKDQAWTTNYDLWQVSVNGGKATNLTADNIAWDAQPTFSSDGRYMAYLAMTKPGFEADRYRIMLRDTSTGQSKEVAPLWDRSPSSLMFAPDNRTLYVTAQDIGQVSIFKVNTQFGDVQSVYSDGSNSLIAIADDQLIFDSKTLVEPGDLYRINTDGQGLKRLTEVNKDKLAEIKFGEFQQFSFKGWNNEDVYGYWIKPANYQEGKKYPIAYLVHGGPQGSFGNGFSGRWNAQLWAGAGYGVVMVDFHGSTGYGQAFTDSISQDWGGKPLEDLQKGLAAVSQQQKWLDPQNACALGGSYGGYMMNWIQGNWNDGFKCLVNHAGLFDMRSMYYVTEEVWFPEHEFGGTYQDNKALYEKFNPVNYVENWKTPMLVIHGEKDFRVPYGQGLAAFSFMQRKGIPSELLIYPDENHWILKPENLEQWYANVFRWMDSWTKK”: “failed”. “MFRFADPNFLYLLILLPFLVALYLYSNYHRRQNIRKYGDPALLKGLMPTISKYRPDIKFWLTFAALTLVILMLARPQFGSKMETVKRSGVEAVIALDISNSMLAEDVTPSRLDKSKKLISRLVDTFNNDKVGLIVFAGDAFTQLPITSDYVSAKMFLETINPSLITTQGTDIGAAIRLAMKSFTPQEGVGRAIIVITDGENHEGGAVEAAQEAAEKGMQVFVLGVGSPDGSPIPAEDGSNNFRRDKDGNVIVTRLNEQMCQEIAKAGNGMYIRVDNTNSAEKVLNNEIAKLSKADVESQVYTEFDEQFQALAWLVLILLVVEMLILERKNPLFKNVRLFK”: the protein production result is listed as “failed”.

As for “ESICLIGHSLGGDLARYFASEFEEVKKLILLDGGYLDLDKILPLDTELEETKNYIKSQIVSDLDVLTSKEKSEAKHWSENMEKAVRQSYHWNVEYNRYELAINYENIEAILRLRRKIQAFKREVGDTLFISPRYPNEATWREEALKELPDYFDTIFLENFGHELYTQAPKEIASLMNEWL”, the protein production entry is given as “failed”. Consider “PLLTEEALFGEDRHVLGEKGVVVRVFSDFQCPYCQRLAREVLPALKAMAREGRLRLAYRHFPLYEIHPEAVPAAVASECAAAQGAFWAYHDLLMAGSGWDYPALARRLGLDPKAFQACLEDPASRAPVEADRALAERLGLPGTPSVFVGPFRLPNPFDLERYRDYLALAEAL”, for which the protein production result is “failed”. The same measure for “MIKEFSDPLYGFVRVGEAGLRLIDSFPFQRLRYVKQLGLAYLVFPSAQHTRFEHSLGVYHITERICESLKVKEKELVKLAGLLHDLGHPPFSHTTEVLLPRERSHEDFTERVIKETEIYEILKQDYSHEDIERLVRITLGKPEDEEEKLLSEIITGEFGSDRMDYLRRDAYFCGVSYGFFDYDRLISTLRVYENKVVVDESGLRALENFLISRYFMYVQVYFHKVVRILSIHLVEFLKKLISQEDFTDINNFLRLNDAFVISELFKRKAFREDFERIFQRKHFKTLLSTENYEKFSETKERLLEKFPQEKVRFDEVEKEVYGGNIYVLSSEGLKKAHELSPLIASLKPIKLYRIYVDRQLWEKARSELKLS”: “not failed”; for “VLMDEGAVLTLAADLSSATLDISKQWSNVFNILRENDFEPKFLCEVKLAFKCDGEIKTFSDLQSLRKFASQKSSMKELLKDVLPQKE”: “not failed”; for “MKGTVGELGEFGLIRELTSRLTTTPAVRVGPGDDAAVVAAPDRRVVASTDILVEGRHFRRDWSTAYDVGRKAAAQNLADIAAMGAVPTALLLGLVVPAELPVTWPTELMDGLRDECQVAGASVVGGDVVRGDTITVSITALGDLRNQEPVTRAGAQPGDLVAVTGWLGWSAAGFAVLSRGFRSPRAFVEAHRRPEPPYHAGPAAAGLGATAMCDVSDGLIADLGHIAEASKVRIDVRSGQIDIPSQMNDIGQAVGVDPMQWVLTGGEDHAIVATFPPDVKLPARWKVIGEVLNPSALPQVTVDGAPWTSKGGWDHFGGDVES”: “failed”.

Take “MARGEGEFYLAGRRLTGFLSAMTYAATTYSSFMIVGLVGLAYFTGIGSLVFELAYLVATVILLSLFSRRVWRMSRERGWVSPGEMLADLLGSPWVALTASLVFLVSLVPYASAQLKGIAETIVAIAGYSPGDNTAYMVAVGVALLILLAWSLLAGVRGVVLTDAFQGLWMLTAGSLLFLWLASRVFSKSGASEVLSAMESAGLFDMWSATLLIGFVTPWVFFAVTNPQVVQRLYMPKDEESLRRMILYFFLFGLYYTVLVVAIGFLARAGVELGILSIEPQGRDQVTPQLLSLAHPLLAALVFTSIVAASVSTADSIILALASSASRDIGLLVLRLDEKGRLRLGYAAAALFTVLMAVFAATRIGYIVQLSVLSSVMLLGLAPVTIAAWVGLRVHPALAVASIATGPVLVAANVLYSLAVGGEVSLSPAKQVLGVPISVWVLAISLALTAAGIALVRGRR”: the protein production result is “failed”. As for “MFKRIAQTAGFTGLLAALLLTLLQSFWVVPLIQQAETYEKAPAEHVHEHADGAVAEHSHAHDEAAWEPENGWQRVLSTTGGNLVVAVGFALMLAGLYTLRAPGRTAQGAWWGLAGFAVFVLAPTLGLPPELPGTAAAELSQRQLWWIGTAASTAAGLALLVFGQNWLLKVLGAAILVVPHVIGAPQPLVHESLAPEALESQFRVASLLTNALFWVALGLISAWLFRRSNVHTDNAHSNHA”, the entry is “failed”; as for “MAEDEIVVEEEQSQPQEITPVPPSSSSSPSLVVEDDDEMKLKHLEFIQVAAVYFAACFSTLYELAKDNAGPLKLGVENIEDCVRTVLAPLYEKFHDVPFKLLLFVDRKVDDVFFDVETYVPSLVKQASSQALTVATEVQRTGVVDTTKSIARSVRDKYEPAAEYYAATLWRLLNQLPLFPEVAHLVIPTAFYWSEKYNDAVRYVGDRDYFGAEYLPMIPIEKISDILEQDQCRAD”, “failed”; as for “MIKEWATVVSWQNGQALVSCDVKASCSSCASRAGCGSRVLNKLGPQTTHTIVVPCDEPLVPGQKVELGIAEGSLLSSALLVYMSPLVGLFLIASLFQLLFASDVAALCGAILGGIGGFLIARGYSRKFAARAEWQPIILSVALPPGLVRFETSSEDASQ”, “failed”. As for “EPEKLGQALTEVYAKANSFTVSSVAAPSWLHRFIIGKKGQNLAKITQQMPKVHIEFTEGEDKITLEGPTEDVSVAQEQIEGMVKDLINR”, the entry is “not failed”; as for “MARCAVFLEELWFALFAWVPTVLGTAVRLVAWRPLFRLLGGVCGKVRFGQSLTLQGAGHMRLADGVRLGKGCHLYARTGELVMGENAALNINVVVDADGGTVRIGAHATVGPGTVIRAANHRFDRLDTPIMFQGHEYGEVVIDDDVWIAANCTVVPGVHIGRGAVVGAGAVVTKDVEPYTVVAGVPARFIRRRGPAE”, “failed”.
